This note sets out measurements from patent publication US20170165342A1 (VIRGINIA COMMONWEALTH UNIVERSITY, published 2017).

For assay [1], the target named is sLe^x-capped P-selectin glycoprotein ligand-1 (PSGL-1) (UniProt Q14242). Kind of assay: cell-based or functional assay.
The target in assay [2] is T1, sLe^x-capped P-selectin glycoprotein ligand-1 (PSGL-1) (UniProt Q14242 42-412, capped with the sialyl Lewis x (sLe^x) O-glycan).
T1 sequence: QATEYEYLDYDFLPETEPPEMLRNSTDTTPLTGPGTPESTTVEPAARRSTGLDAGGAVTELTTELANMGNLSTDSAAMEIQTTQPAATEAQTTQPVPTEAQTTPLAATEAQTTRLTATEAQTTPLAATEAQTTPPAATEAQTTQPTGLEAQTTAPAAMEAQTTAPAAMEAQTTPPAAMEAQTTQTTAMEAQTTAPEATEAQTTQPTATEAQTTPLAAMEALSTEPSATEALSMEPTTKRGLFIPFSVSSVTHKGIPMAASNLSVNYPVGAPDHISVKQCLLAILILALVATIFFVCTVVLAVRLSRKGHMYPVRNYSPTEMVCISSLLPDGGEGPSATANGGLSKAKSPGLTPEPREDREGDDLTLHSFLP
Briefly: cell-based or functional assay.

Several values for one entry are separate records, joined by “and”; a condition that tells them apart may be missing. Equal values may be shown once.

Turning to “KPL-1, PSGL-1 N-terminus-specific antibody”, in assay [1], the numbers of bound DC organisms per PSGL-1 CHO cell after incubating PSGL-1 CHO cells with KPL-1 (fold reduction) is 2 and 3.

B1: OmpA (outer membrane protein A) on the surface of A. phagocytophilum DC organisms (other)
chain: CGTLLPDSNVGVGRHDLGSHRSVAFAKKVEKVYFDIGKYDLKGPGKKVILELVEQLRQDDSMYLVVIGHADATGTEEYSLALGEKRANAVKQFIIGCDKSLAPRVTTQSRGKAEPEVLVYSTDAQEVEKANAQNRRAVIVVEFAHIPRSGVADMHAPVASSITSENSNASAEGEDMEASEFSSAIAN
For B1, the “bacterial binding to PSGL-1 CHO cells after pretreating bacteria with anti-OmpA” value in assay [2] is ~2 fold reduction.
